# Experimental data published in patent US20230028476A1 (EVOTEC INTERNATIONAL, published 2023).
# Residue numbers refer to the chain shown, from its start. Read-outs that look alike come from different tables or passages of the source.
# B1: IFA12 (antibody, human IgG2, kappa)
# light: DIQMTQSPSSVSASVGDRVTITCRASQGIYSWLAWYQQKPGKAPNLLIYTASTLQSGVPSRFSGSGSGTDFTLTISSLQPEDFATYYCQQANIFPLTFGGGTKVEIKRTVAAPSVFIFPPSDEQLKSGTASVVCLLNNFYPREAKVQWKVDNALQSGNSQESVTEQDSKDSTYSLSSTLTLSKADYEKHKVYACEVTHQGLSSPVTKSFNRGECPAPAMSYNLLGFLQRSSNFQCQKLLWQLNGRLEYCLKDRMNFDIPEEIKQLQQFQKEDAALTIYEMLQNIFAIFRQDSSSTGWNETIVENLLANVYHQINHLKTVLEEKLEKEDFTRGKLMSSLHLKRYYGRILHYLKAKEYSHCAWTIVRVEILRNFYFINRLTGYLRN
# heavy: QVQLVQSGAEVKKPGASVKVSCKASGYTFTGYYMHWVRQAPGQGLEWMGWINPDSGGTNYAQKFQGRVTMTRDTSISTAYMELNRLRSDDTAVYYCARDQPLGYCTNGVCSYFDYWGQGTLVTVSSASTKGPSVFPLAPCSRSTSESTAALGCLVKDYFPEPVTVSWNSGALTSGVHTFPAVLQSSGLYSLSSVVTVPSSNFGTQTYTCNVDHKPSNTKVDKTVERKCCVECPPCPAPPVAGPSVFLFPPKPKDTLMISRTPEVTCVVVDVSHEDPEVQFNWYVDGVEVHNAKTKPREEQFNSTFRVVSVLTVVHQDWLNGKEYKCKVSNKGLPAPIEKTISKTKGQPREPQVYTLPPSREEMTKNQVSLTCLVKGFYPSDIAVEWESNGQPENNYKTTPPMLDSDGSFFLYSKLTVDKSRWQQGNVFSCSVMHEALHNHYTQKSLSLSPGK
# B2: IFA13 (antibody, human IgG2, kappa)
# light: B1 light with C235S
# heavy: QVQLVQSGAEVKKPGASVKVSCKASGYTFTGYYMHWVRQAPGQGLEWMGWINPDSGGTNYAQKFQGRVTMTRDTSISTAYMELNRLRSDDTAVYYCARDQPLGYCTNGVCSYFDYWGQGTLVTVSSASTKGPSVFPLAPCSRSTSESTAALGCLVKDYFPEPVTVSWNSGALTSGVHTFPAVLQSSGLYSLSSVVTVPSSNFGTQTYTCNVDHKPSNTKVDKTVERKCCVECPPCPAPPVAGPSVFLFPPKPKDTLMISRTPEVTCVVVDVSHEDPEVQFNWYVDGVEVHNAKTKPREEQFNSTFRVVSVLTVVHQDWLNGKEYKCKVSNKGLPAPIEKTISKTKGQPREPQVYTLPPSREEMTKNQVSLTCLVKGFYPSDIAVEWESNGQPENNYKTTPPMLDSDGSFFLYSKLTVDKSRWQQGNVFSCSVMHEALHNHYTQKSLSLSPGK
# B3: IFA20 (antibody, human IgG2, kappa)
# light: DIQMTQSPSSVSASVGDRVTITCRASQGIYSWLAWYQQKPGKAPNLLIYTASTLQSGVPSRFSGSGSGTDFTLTISSLQPEDFATYYCQQANIFPLTFGGGTKVEIKRTVAAPSVFIFPPSDEQLKSGTASVVCLLNNFYPREAKVQWKVDNALQSGNSQESVTEQDSKDSTYSLSSTLTLSKADYEKHKVYACEVTHQGLSSPVTKSFNRGECAEAAAKEAAAKAAEAAAKEAAAKAMSYNLLGFLQRSSNFQSQKLLWQLNGRLEYCLKDRMNFDIPEEIKQLQQFQKEDAALTIYEMLQNIFAIFRQDSSSTGWNETIVENLLANVYHQINHLKTVLEEKLEKEDFTRGKLMSSLHLKRYYGRILHYLKAKEYSHCAWTIVRVEILRNFYFINRLTGYLRN
# heavy: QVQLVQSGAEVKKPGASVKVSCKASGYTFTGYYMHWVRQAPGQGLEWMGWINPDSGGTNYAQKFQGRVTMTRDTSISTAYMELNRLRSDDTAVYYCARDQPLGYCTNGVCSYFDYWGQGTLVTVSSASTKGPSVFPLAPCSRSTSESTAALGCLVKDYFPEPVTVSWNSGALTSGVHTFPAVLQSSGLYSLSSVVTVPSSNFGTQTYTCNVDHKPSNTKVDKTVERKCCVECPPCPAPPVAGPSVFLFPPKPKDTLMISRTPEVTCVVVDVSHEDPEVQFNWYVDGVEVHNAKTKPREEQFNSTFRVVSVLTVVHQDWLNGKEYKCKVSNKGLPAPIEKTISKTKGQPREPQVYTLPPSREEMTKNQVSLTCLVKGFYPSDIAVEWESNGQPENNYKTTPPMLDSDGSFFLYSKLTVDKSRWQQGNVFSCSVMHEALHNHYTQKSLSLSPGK
# B4: IFA106 (antibody, human IgG2, kappa)
# heavy: QVQLVESGGGVVQPGKSLRLSCAASGFTFSSNGIHWVRQAPGKGLEWVAVIWSDGSNKFYADSVKGRFTISRDNSKNTLYLQMNSLRAEDTAVYYCARASGSGSYYNFFDYWGQGTLVTVSSASTKGPSVFPLAPCSRSTSESTAALGCLVKDYFPEPVTVSWNSGALTSGVHTFPAVLQSSGLYSLSSVVTVPSSNFGTQTYTCNVDHKPSNTKVDKTVERKCCVECPPCPAPPVAGPSVFLFPPKPKDTLMISRTPEVTCVVVDVSHEDPEVQFNWYVDGVEVHNAKTKPREEQFNSTFRVVSVLTVVHQDWLNGKEYKCKVSNKGLPAPIEKTISKTKGQPREPQVYTLPPSREEMTKNQVSLTCLVKGFYPSDIAVEWESNGQPENNYKTTPPMLDSDGSFFLYSKLTVDKSRWQQGNVFSCSVMHEALHNHYTQKSLSLSPGPAPASYNLLGFLQRSSNFQCQKLLWQLNGRLEYCLKDRMNFDIPEEIKQLQQFQKEDAALTIYEMLQNIFAIFRQDSSSTGWNETIVENLLANVYHQINHLKTVLEEKLEKEDFTRGKLMSSLHLKRYYGRILHYLKAKEYSHCAWTIVRVEILRNFYFINRLTGYLRN
# light: not shown
# B5: IFA107 (antibody, human IgG2, kappa)
# heavy: B4 heavy with C467S
# light: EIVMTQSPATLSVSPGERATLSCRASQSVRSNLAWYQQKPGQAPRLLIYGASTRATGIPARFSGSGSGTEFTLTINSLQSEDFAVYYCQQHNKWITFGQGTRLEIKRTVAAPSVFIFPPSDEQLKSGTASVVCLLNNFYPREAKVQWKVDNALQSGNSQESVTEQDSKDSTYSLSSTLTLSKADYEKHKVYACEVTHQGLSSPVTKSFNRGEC
# B6: IFA1 (antibody, human IgG2, kappa)
# light: DIQMTQSPSSVSASVGDRVTITCRASQGIYSWLAWYQQKPGKAPNLLIYTASTLQSGVPSRFSGSGSGTDFTLTISSLQPEDFATYYCQQANIFPLTFGGGTKVEIKRTVAAPSVFIFPPSDEQLKSGTASVVCLLNNFYPREAKVQWKVDNALQSGNSQESVTEQDSKDSTYSLSSTLTLSKADYEKHKVYACEVTHQGLSSPVTKSFNRGECAEAAAKEAAAKAMSYNLLGFLQRSSNFQCQKLLWQLNGRLEYCLKDRMNFDIPEEIKQLQQFQKEDAALTIYEMLQNIFAIFRQDSSSTGWNETIVENLLANVYHQINHLKTVLEEKLEKEDFTRGKLMSSLHLKRYYGRILHYLKAKEYSHCAWTIVRVEILRNFYFINRLTGYLRN
# heavy: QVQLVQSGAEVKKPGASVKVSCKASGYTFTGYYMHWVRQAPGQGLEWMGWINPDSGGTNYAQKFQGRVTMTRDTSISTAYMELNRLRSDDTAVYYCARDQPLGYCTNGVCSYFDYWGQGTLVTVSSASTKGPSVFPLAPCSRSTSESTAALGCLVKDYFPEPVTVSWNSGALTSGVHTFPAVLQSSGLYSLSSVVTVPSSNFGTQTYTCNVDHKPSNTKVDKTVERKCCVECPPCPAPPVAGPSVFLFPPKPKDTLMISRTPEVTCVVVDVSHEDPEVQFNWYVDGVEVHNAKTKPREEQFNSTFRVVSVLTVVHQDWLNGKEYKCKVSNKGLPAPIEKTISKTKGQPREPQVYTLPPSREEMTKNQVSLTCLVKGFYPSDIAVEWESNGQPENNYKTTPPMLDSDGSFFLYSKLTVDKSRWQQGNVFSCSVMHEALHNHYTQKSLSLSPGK
# B7: IFA2 (antibody, human IgG2, kappa)
# light: B6 light with C243S
# heavy: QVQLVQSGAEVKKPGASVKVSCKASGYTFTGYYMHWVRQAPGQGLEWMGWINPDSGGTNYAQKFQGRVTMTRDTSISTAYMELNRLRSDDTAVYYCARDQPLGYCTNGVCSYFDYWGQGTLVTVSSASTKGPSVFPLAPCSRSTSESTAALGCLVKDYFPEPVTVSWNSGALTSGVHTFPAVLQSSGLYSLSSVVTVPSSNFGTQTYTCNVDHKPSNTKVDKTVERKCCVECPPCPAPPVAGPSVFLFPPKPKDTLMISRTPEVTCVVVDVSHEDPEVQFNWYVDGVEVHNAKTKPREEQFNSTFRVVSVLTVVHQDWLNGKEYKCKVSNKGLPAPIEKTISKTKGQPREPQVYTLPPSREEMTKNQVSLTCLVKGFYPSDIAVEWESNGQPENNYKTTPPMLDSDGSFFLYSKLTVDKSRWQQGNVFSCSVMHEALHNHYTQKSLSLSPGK
# B8: IFA19 (antibody, human IgG2, kappa)
# light: DIQMTQSPSSVSASVGDRVTITCRASQGIYSWLAWYQQKPGKAPNLLIYTASTLQSGVPSRFSGSGSGTDFTLTISSLQPEDFATYYCQQANIFPLTFGGGTKVEIKRTVAAPSVFIFPPSDEQLKSGTASVVCLLNNFYPREAKVQWKVDNALQSGNSQESVTEQDSKDSTYSLSSTLTLSKADYEKHKVYACEVTHQGLSSPVTKSFNRGECSGGTSGSTSGTGSMSYNLLGFLQRSSNFQSQKLLWQLNGRLEYCLKDRMNFDIPEEIKQLQQFQKEDAALTIYEMLQNIFAIFRQDSSSTGWNETIVENLLANVYHQINHLKTVLEEKLEKEDFTRGKLMSSLHLKRYYGRILHYLKAKEYSHCAWTIVRVEILRNFYFINRLTGYLRN
# heavy: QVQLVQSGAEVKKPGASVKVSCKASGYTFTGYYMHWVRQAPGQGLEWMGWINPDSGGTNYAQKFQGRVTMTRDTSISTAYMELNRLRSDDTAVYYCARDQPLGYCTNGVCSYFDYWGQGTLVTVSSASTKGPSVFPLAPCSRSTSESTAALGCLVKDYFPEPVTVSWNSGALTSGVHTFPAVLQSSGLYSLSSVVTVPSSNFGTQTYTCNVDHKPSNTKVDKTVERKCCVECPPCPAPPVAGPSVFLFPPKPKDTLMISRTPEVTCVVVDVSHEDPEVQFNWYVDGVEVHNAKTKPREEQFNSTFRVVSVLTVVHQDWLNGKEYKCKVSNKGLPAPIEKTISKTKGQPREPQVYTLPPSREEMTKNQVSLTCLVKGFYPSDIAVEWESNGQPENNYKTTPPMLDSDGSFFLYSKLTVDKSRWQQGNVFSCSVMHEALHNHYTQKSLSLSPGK
# B9: IFA108 (antibody, human IgG2, kappa)
# heavy: QVQLVESGGGVVQPGKSLRLSCAASGFTFSSNGIHWVRQAPGKGLEWVAVIWSDGSNKFYADSVKGRFTISRDNSKNTLYLQMNSLRAEDTAVYYCARASGSGSYYNFFDYWGQGTLVTVSSASTKGPSVFPLAPCSRSTSESTAALGCLVKDYFPEPVTVSWNSGALTSGVHTFPAVLQSSGLYSLSSVVTVPSSNFGTQTYTCNVDHKPSNTKVDKTVERKCCVECPPCPAPPVAGPSVFLFPPKPKDTLMISRTPEVTCVVVDVSHEDPEVQFNWYVDGVEVHNAKTKPREEQFNSTFRVVSVLTVVHQDWLNGKEYKCKVSNKGLPAPIEKTISKTKGQPREPQVYTLPPSREEMTKNQVSLTCLVKGFYPSDIAVEWESNGQPENNYKTTPPMLDSDGSFFLYSKLTVDKSRWQQGNVFSCSVMHEALHNHYTQKSLSLSPGAEAAAKEAAAKASYNLLGFLQRSSNFQCQKLLWQLNGRLEYCLKDRMNFDIPEEIKQLQQFQKEDAALTIYEMLQNIFAIFRQDSSSTGWNETIVENLLANVYHQINHLKTVLEEKLEKEDFTRGKLMSSLHLKRYYGRILHYLKAKEYSHCAWTIVRVEILRNFYFINRLTGYLRN
# light: not shown
# B10: IFA109 (antibody, human IgG2, kappa)
# heavy: B9 heavy with C475S
# light: not shown
# B11: IFA10 (antibody, human IgG2, kappa)
# heavy: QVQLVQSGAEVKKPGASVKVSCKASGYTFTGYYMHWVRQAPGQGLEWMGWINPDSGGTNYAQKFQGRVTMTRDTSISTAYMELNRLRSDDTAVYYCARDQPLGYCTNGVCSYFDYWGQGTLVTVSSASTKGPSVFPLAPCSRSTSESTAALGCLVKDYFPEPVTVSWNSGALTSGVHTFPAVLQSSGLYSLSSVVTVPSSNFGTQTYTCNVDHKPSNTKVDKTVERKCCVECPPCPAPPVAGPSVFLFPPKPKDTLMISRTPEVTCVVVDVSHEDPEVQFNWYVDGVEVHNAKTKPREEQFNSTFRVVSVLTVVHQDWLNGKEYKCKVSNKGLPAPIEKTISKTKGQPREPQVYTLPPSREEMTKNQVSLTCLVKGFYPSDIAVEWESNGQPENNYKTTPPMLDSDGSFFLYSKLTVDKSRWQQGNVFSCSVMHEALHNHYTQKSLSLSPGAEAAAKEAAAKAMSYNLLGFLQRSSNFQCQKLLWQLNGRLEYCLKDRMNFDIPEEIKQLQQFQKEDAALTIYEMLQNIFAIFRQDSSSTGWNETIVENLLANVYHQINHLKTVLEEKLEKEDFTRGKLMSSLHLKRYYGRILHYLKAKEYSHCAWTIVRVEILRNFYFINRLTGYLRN
# light: DIQMTQSPSSVSASVGDRVTITCRASQGIYSWLAWYQQKPGKAPNLLIYTASTLQSGVPSRFSGSGSGTDFTLTISSLQPEDFATYYCQQANIFPLTFGGGTKVEIKRTVAAPSVFIFPPSDEQLKSGTASVVCLLNNFYPREAKVQWKVDNALQSGNSQESVTEQDSKDSTYSLSSTLTLSKADYEKHKVYACEVTHQGLSSPVTKSFNRGEC
# B12: IFA49 (antibody, human IgG2, kappa)
# heavy: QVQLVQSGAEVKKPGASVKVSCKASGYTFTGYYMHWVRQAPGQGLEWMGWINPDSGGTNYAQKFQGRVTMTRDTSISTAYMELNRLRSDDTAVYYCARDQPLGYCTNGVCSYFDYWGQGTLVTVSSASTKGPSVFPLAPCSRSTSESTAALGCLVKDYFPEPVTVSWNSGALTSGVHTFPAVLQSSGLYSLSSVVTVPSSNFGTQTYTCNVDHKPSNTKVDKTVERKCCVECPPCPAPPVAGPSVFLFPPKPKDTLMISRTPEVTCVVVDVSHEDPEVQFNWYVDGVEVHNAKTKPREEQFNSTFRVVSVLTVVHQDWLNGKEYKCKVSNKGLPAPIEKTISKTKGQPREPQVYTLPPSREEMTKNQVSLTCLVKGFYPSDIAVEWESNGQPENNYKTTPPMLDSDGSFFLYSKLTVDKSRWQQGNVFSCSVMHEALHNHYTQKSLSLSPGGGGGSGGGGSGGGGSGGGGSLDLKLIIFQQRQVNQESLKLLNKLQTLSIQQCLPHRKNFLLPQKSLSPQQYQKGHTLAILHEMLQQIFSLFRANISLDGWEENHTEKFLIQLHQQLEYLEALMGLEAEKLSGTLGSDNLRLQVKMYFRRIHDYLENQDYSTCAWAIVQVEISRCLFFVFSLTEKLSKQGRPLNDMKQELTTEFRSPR
# light: B11 light
# B13: agonistic anti-CD40 antibody CP870,893 (antibody, human IgG2, kappa)
# heavy: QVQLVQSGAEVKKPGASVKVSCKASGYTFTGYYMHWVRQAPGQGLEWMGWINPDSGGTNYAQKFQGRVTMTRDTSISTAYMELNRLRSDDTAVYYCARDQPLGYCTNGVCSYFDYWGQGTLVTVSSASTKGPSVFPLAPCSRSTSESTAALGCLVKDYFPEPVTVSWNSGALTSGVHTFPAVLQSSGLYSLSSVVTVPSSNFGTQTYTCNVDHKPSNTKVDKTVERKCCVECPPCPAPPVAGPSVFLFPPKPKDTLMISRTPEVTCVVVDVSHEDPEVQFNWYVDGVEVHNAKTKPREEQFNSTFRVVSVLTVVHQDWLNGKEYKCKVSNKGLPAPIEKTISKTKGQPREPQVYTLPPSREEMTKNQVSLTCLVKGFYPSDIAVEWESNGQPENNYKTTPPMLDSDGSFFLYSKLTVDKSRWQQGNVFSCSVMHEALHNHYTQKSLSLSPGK
# light: B11 light
# B14: IFA11 (antibody, human IgG2, kappa)
# heavy: not shown
# light: B11 light
# B15: IFA9 (antibody, human IgG2, kappa)
# heavy: not shown
# light: B11 light
# B16: IFA8 (antibody, human IgG2, kappa)
# heavy: not shown
# light: B11 light
# Experiments:
# Test in all cases: cell-based or functional assay
# [1] = molecular target: T1, human CD40 (human, UniProt P25942 21-277)
# T1 sequence (P25942 21-277): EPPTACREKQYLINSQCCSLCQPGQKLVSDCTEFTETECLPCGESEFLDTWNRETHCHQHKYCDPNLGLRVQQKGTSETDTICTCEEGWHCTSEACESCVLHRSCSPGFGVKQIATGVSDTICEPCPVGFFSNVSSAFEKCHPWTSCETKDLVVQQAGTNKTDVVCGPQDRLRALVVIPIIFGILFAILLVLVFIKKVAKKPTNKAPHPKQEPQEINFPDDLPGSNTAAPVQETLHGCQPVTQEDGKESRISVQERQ
# [2] = molecular target: human IFN receptor on HEK-Blue IFN-α/β cells (human)
# [3] = molecular target: T1, human CD40; remark: listed apart in the source
# [4] = molecular target: human IFN receptor on HEK-Blue IFN-α/β cells (human); remark: listed apart in the source
# [5] = molecular target: T1, human CD40; remark: listed apart in the source
Binder,CD40 EC50 (HEK-Blue CD40L reporter cells) [1],IFNβ EC50 (HEK-Blue IFN-α/β reporter cells) [2],further results
B1,0.105 mg/L,0.00364 mg/L,–
B2,0.192 mg/L,0.0007 mg/L,–
B3,0.182 mg/L,0.00234 mg/L,–
B4,–,–,CD40 EC50 (HEK-Blue CD40L reporter cells) [3]: 0.191 mg/L; IFNβ EC50 (HEK-Blue IFN-α/β reporter cells) [4]: 0.0103 mg/L
B5,–,–,CD40 EC50 (HEK-Blue CD40L reporter cells) [3]: 0.142 mg/L; IFNβ EC50 (HEK-Blue IFN-α/β reporter cells) [4]: 0.00203 mg/L
B6,0.0741 mg/L,0.00164 mg/L,–
B7,0.111 mg/L,0.00014 mg/L,–
B8,0.11 mg/L,0.0013 mg/L,–
B9,–,–,CD40 EC50 (HEK-Blue CD40L reporter cells) [3]: 0.0373 mg/L; IFNβ EC50 (HEK-Blue IFN-α/β reporter cells) [4]: 0.00127 mg/L
B10,–,–,CD40 EC50 (HEK-Blue CD40L reporter cells) [3]: 0.03 mg/L; IFNβ EC50 (HEK-Blue IFN-α/β reporter cells) [4]: 0.00045 mg/L
B11,0.0265 mg/L,0.0045 mg/L,–
B12,0.0658 mg/L,–,IFNε EC50 (HEK-Blue IFN-α/β reporter cells) [2]: 0.0782 mg/L
B13,–,–,"EC50, agonistic CD40 activity in the experiment of FIG. 3 (HEK-Blue CD40L reporter cells) [5]: 0.057 mg/L; EC50, potency on CD40 pathway (HEK-Blue CD40L reporter cells) [5]: 0.03 to 0.08 mg/L; mean EC50, agonistic CD40 activity (HEK-Blue CD40L reporter cells) [5]: 0.048 mg/L"
B14,0.0428 mg/L,0.00178 mg/L,–
B15,0.0426 mg/L,0.0007 mg/L,–
B16,0.0397 mg/L,0.0029 mg/L,–
